# T1: HCoV-HKU1 prefusion-stabilized spike (S) protein / S ectodomain trimer (human coronavirus HKU1, UniProt Q5MQD0 13-1300)
# T1 sequence: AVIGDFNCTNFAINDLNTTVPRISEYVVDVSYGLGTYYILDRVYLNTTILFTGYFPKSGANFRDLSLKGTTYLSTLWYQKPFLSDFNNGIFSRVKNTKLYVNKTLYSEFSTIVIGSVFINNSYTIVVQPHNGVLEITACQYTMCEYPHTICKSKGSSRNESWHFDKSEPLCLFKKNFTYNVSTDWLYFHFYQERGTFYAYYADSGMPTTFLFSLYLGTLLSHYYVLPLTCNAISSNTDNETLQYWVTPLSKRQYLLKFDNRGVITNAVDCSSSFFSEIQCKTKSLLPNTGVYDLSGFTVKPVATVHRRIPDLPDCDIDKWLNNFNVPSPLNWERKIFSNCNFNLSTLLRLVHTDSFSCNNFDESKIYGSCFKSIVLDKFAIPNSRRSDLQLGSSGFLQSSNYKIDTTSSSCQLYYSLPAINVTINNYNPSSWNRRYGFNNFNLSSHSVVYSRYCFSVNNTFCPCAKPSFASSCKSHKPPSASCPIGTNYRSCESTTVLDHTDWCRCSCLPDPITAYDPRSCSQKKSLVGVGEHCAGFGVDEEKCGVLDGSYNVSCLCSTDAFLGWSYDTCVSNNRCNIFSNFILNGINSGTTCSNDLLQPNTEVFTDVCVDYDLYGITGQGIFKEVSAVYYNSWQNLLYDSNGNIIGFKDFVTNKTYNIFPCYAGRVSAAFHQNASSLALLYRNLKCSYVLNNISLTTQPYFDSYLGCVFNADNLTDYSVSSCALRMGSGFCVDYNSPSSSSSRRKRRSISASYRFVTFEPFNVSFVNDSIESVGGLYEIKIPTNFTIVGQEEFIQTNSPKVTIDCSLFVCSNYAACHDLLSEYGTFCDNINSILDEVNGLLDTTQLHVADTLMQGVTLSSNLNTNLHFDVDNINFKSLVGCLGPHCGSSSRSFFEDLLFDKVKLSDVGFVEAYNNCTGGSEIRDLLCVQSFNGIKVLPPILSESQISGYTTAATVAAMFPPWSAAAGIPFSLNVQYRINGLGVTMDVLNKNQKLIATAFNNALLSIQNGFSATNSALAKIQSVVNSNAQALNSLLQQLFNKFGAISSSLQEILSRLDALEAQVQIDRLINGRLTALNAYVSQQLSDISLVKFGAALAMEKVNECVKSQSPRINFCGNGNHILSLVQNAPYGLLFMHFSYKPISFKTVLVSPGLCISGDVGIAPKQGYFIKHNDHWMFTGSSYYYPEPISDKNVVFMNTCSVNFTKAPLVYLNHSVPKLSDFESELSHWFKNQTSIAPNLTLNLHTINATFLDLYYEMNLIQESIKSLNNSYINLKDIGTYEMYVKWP
# T2: HCoV-OC43 prefusion-stabilized spike (S) protein / S ectodomain trimer (human coronavirus OC43, UniProt P36334 14-1297)
# T2 sequence: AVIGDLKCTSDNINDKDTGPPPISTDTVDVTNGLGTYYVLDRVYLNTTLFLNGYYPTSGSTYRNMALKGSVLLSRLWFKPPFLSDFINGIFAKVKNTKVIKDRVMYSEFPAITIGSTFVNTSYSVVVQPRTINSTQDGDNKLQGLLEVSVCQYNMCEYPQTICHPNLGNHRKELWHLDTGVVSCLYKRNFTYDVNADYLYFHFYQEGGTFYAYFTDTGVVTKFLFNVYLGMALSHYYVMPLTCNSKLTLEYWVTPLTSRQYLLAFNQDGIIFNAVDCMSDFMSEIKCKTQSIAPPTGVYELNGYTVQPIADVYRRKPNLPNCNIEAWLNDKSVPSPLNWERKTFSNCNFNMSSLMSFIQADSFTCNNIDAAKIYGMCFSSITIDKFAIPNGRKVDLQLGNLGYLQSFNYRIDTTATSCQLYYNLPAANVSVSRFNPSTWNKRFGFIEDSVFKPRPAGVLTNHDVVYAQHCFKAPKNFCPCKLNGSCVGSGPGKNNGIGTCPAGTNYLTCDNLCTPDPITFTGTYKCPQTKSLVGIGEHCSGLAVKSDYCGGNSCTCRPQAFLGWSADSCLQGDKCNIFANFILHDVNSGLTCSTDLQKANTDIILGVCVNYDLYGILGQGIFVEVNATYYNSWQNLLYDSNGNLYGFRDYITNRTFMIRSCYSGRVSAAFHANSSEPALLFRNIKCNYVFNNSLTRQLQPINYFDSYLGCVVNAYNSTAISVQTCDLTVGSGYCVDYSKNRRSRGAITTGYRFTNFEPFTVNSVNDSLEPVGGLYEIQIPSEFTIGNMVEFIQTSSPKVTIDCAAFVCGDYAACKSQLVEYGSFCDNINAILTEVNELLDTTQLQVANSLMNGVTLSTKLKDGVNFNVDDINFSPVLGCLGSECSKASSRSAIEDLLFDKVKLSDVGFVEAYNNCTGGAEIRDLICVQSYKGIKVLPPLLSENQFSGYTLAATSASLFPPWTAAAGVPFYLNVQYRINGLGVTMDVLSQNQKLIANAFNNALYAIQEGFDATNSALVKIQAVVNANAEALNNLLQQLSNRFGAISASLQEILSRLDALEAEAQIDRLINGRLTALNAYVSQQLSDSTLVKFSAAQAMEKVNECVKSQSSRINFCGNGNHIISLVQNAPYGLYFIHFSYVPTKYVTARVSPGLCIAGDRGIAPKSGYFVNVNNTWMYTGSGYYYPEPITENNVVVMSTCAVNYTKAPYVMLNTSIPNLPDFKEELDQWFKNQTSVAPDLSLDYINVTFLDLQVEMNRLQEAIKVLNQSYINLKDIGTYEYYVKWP
# B1: antibody S2P6 (antibody 420 1 1), human monoclonal antibody expressed as recombinant human IgG1 (antibody, V domains shown)
# VH: EVQLVQSGAEVKKPGASVKVSCKASGYTFTSQYMHWVRQAPGQGLEWIGIINPSGVHTSYAQKFQGRVTLTRDTSTSTLYMELSSLRSEDTAVYYCARGSPKGAFDYWGQGTLVTVSS
# VL: not shown
# Columns and labels:
# [1] = target: SARS-CoV (Urbani strain) prefusion-stabilized spike (S) protein / S ectodomain trimer (SARS-CoV (Urbani strain), UniProt P59594 14-1195)
# [2] = target: T1, HCoV-HKU1 prefusion-stabilized spike …
# [3] = target: T2, HCoV-OC43 prefusion-stabilized spike …
binder,measurement,setting,value
B1,Kd,[1],< 0.001 nM
same,Kd,[2],2.44 nM
same,Kd,[3],0.372 nM

# Reference: patent publication JP2023550785A (dated 2023)
